Measured values as given in article PMC5199193, “Structure of the transporter associated with antigen processing trapped by herpes simplex virus” (eLife, 2016).

Biological target: T1, transporter associated with antigen processing (TAP), heterodimer of TAP1 and TAP2 (human, UniProt Q03518 1-748; Q03519 1-686)
T1 construct: TAP1, human; TMD0 is in the construct (no density seen for it); TAP2, human; model holds residues 130-681; also called human TAP; source: lysed cells incubated with purified ICP47, solubilised in DDM, purified (IgG Sepharose, Superose 6); not shown: Protein A, C-terminal, cleaved
T1 sequence 1: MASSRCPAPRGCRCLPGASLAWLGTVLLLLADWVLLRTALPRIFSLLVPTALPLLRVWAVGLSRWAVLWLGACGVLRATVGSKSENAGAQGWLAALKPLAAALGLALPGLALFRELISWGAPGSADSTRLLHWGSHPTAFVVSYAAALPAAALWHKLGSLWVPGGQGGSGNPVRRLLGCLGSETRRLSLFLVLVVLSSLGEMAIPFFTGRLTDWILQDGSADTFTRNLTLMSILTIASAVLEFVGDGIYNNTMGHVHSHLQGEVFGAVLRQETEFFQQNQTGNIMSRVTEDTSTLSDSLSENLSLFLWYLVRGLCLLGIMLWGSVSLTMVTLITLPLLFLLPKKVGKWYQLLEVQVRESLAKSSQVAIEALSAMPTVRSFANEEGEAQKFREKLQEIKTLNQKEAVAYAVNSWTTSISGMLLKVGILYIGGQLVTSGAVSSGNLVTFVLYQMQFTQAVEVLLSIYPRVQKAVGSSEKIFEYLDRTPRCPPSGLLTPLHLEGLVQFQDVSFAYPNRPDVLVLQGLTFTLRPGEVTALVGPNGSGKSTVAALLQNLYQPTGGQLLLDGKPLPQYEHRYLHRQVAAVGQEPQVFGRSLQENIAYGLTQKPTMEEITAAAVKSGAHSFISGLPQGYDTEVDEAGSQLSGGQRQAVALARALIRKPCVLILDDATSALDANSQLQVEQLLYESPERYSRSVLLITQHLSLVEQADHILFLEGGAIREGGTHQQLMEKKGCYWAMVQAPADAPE
T1 sequence 2: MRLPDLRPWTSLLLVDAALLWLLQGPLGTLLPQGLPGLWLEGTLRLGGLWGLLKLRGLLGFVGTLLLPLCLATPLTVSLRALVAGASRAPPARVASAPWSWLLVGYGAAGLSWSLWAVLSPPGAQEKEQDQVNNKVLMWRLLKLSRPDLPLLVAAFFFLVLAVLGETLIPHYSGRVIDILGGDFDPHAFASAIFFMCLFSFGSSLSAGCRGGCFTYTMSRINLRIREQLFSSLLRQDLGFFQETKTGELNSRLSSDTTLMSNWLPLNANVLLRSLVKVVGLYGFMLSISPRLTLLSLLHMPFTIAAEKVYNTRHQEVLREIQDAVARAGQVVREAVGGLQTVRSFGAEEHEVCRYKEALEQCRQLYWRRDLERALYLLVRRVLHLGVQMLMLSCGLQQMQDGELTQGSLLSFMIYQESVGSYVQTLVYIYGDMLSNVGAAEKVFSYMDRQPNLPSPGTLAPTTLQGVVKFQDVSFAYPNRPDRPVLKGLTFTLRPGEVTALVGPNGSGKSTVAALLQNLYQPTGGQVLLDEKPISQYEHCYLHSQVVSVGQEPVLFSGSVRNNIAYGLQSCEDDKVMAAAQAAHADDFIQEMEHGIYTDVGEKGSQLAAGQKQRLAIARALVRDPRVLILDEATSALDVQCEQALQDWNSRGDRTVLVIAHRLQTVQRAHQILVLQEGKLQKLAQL
Assay: cryo-EM structure; purified TAP/ICP47 complex (2 mg/ml) in 20 mM Hepes pH 7.4, 150 mM NaCl, 2 mM TCEP, 1 mM DDM, 1 mM C12E8; complex formed by incubating lysed Pichia cells co-expressing TAP1 and TAP2 with purified ICP47; 4.0 Å
Details: both partners purified

B1: ICP47 of herpes simplex virus 1 (natural protein)
chain: MSWALEMADTFLDTMRVGPRTYADVRDEINKRGREDREAARTAVHDPERPLLRSPGLLPEIAPNASLGVAHRRTGGTVTDSPRNPVTR
notes: ICP47, HSV-1; the N-terminal 55 residues are ordered and the C-terminal 33 residues have no density (88 residues together); also called HSV-1 ICP47; source: E. coli, purified via the GST tag
binding result: binds
